In the test the target is recombinant HDM2 17-125 (UniProt Q00987 17-125). Put plainly: FP competition with FITC-SAH-p53-8; FIG. 2B; axis prints HDMX, legend says HDM2.

B1: SAH-p53-8 (peptide)
peptide: QSQQTFXNLWRLLXQN
modifications: not fully specified; amino acids at positions S20 and P27 (p53 numbering) replaced with synthetic olefinic residues joined by an i, i+7 hydrocarbon staple; acetyl-capped N-terminus in the competition FP assay
Turning to B1, the IC50 amounted to 216 nM.

The values above are taken from patent US20140018302A1 (published 2014).
